# Biological target: Flag-TIN2 (human) (UniProt Q9BSI4)
# Assay: co-IP
# Chain of UniProt Q9BSI4 (Q9BSI4 whole entry): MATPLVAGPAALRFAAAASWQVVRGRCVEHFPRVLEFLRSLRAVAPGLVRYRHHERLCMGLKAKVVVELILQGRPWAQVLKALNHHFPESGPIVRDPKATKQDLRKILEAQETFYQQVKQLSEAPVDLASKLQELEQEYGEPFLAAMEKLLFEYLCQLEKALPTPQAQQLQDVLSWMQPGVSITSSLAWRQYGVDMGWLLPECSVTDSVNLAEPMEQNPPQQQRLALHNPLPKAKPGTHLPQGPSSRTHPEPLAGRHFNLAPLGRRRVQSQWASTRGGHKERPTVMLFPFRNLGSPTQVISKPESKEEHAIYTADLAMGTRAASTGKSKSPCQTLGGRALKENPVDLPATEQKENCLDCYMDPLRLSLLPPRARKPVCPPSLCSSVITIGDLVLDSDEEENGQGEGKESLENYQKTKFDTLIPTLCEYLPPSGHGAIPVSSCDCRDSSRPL
substance,measurement,value
Flag-tagged TPP1-P491T (from UniProt Q96AP0-3 1-458) (natural protein),fold reduction in TIN2 association against wild-type TPP1,2 fold

# Source: paper PMC4180972
